# From US20160075790A1 (Bristol-Myers Squibb, published 2016)
# Several values for one entry are separate records, joined by “and”; a condition that tells them apart may be missing. Equal values may be shown once.
# T1: human isoleucine zipper-CD40L (IZ-hCD40L) (human, UniProt P29965 113-261)
# T1 sequence: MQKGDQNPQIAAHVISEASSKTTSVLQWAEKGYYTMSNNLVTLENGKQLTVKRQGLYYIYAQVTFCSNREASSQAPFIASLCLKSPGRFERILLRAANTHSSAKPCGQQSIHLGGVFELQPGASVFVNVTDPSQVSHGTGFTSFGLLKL
# Target: T1, human isoleucine zipper-CD40L …
# Assay: cell-based or functional assay
row,Binder,hIZCD40L-driven Human B Cell Proliferation EC50
1,BMS2h-722 (other) VH: EVQLLESGGGLVQPGGSLRLSCAASGFTFTKYPMAWVRQAPGKGLEWVSGIDANGNRTYYADSVKGRFTISRDNSKNTLYLQMNSLRAEDTAVYYCAEGTWRRHFAIFDYWGQGTLVTVSS,> 7 µM
2,BMS2h-725 (other) VH: EVQLLESGGGLVQPGGSLRLSCAASGFTFSAYTMGWVRQAPGKGLEWVSLIGDRGSWTYYADSVKGRFTISRDNSKNTLYLQMNSLRAEDTAVYYCAEPSDPTKFDYWGQGTLVTVSS,6.4 µM
3,BMS2h-725-2 (other) VH: EVQLLESGGGLVQPGGSLRLSCAASGFTFSAYTMGWVRQAPGKGLEWVSLIGDRGSWTYYADSVKGRFTISRDNSKNTLYLQMNSLRAEDTAVYYCAEPSDPTKFVYWGQGTPVTVSS,> 7 µM
4,BMS2h-725-9 (other) VH: EVQLLESGGGLVQPGGSLRLSCAASGFTFSAYTMGWVRQAPGMGLEWVSLIGDRGSWTYYADSVKGRFTISRDNSKNTLYLQMNSLRAEDTAVYYCAEPSDPTKFDYWGQGTLVTVSS,> 7 µM
5,BMS2h-725-19 (other) VH: EVQLLESGGGLVQPGGSLRLSCAASGFTFSAYTMGWVRQAPGKGLEWVSLIGDRGSWTYYADSVKGRFTISRDNSKNTLYLQMNSLRAEDTAVYYCADPSDPTKFVYWGQGTLVTVSS,> 7 µM
6,BMS2h-730 (other) VL: DIQMTQSPSSLSASVGDRVTITCRASQDIKDWLHWYQQKPGKAPKLLIYFASGLQSGVPSRFSGSGSGTDFTLTISSLQPEDSATYYCQQHYSTPYTSGQGTKVEIKR,> 7 µM
7,BMS2h-754 (other) VH: EVQLLESGGGLVQPGGSLRLSCAASGFTFSRYDMVWVRQAPGKGLEWVSRINSMGLATYYADSVKGRFTISRDNSKNTLYLQMNSLRAEDTAVYYCAKDYSVAPHGYPLGFDYWGQGTLVTVSS,6.6 µM
8,BMS2h-731 (other) VL: DIQMTQSPPSLSASVGDRVTITCRASQLISSHLDWYQQKPGKAPKLLVYDASELQSGVPSRFSGSGSGTDFTLTISSLQPEDFATYYCQQHRSLPFTFGQGTKVEIKR,5.8 µM
9,BMS2h-747 (other) VH: EVQLLESGGGLVQPGGSLRLSCAASGFTFDDGTMGWARQAPGKGLEWVSLILPSGSRTYYADSVKGRFTISRDNSKNTLYLQMNSLRAEDTAVYYCAKHSLTNRPFDYWGQGTLVTVSS,> 7 µM
10,BMS2h-752 (other) VH: EVQLLESGGGLVQPGGSLRLSCAASGFTFSDYAMAWVRQAPGKGLEWVSRIGVEGGDTYYADSVKGRFTISRDNSKNTLYLQMNSLRAEDTAVYYCAKLLRLYRLGFDYWGQGTLVTVSS,> 7 µM
11,BMS2h-744 (other) VH: EVQLLESGGGLVQPGGSLRLSCAASGFTFKEHDMFWVRQAPGKGLEWVSGIGAEGVWTYYADSVKGRFTISRDNSKNTLYLQMNSLRAEDTAVYYCAEPTMSNGSQSRFDYWGQGTLVTVSS,> 7 µM
12,BMS2h-719-215 (other) VH: EVQLLESGGGLVQPGGSLRLSCAASGFTFKRYEMMWVRQAPGKGLEWVSSISSDGSFTYYADSVKGRFTISRDNSKNTLYLQMNSLRAEDTAVYYCAEPFTELDYWGHGTLVTVSS,0.092 µM and 0.091 µM
13,BMS2h-719-218 (other) VH: EVQLLESGGGLVQPGGSLRLSCAASGFTFKRYEMMWVRQAPGKGLEWVSSISSDGSFTYYAESVKGRFTISRDNSKNTLYLQMNSLRAEDTAVYYCAEPFTEFDYWGHGTLVTVSS,0.057 µM and 0.06 µM
14,BMS2h-726 (other) VH: EVQLLESGGGLVQPGGSLRLSCAASGFTFDNYKMYWVRQAPGKGLEWVSSISEIGNLTYYADSVKGRFTISRDNSKNTLYLQMNSLRAEDTAVYYCAIALTRFDYWGQGTLVTVSS,> 7 µM
15,BMS2h-745 (other) VH: EVQLLESGGGLVQPGGSLRLSCAASGFTFDNTEMAWVRQAPGKGLEWVSGIIEDGNRTYYADSVKGRFTISRDNSKNTLYLQMNSLRAEDTAVYYCAKIRNLHWDVGRQFDYWGQGTLVTVSS,6.4 µM and 3.5 µM and > 7 µM
16,BMS2h-746 (other) VH: EVQLLESGGGLVQPGGSLRLSCAASGFTFGSAEMGWVRQAPGKGLEWVSGISRPGQVTYYADSVKGRFTISRDNSKNTLYLQMNSLRAEDTAVYYCAKIRNLHWDVGRQFDYWGQGTLVTVSS,> 7 µM
17,BMS2h-745-13 (other) VH: EVQLLESGGGLVQPGGSLRLSCAASGFTFDNTEMAWIRQAPGKGLEWVSGIIEDGNRTYYADSVKGRFTISRDNSKNTLYLQMNSLRAEDTAVYYCAKIRNLHWDVGRQFDYWGQGTLVTVSS,> 7 µM
18,BMS2h-745-14 (other) VH: EVQLLESGGGLVQPGGSLRLSCAASGFTFDNTEMAWIRQAPGKGLEWVSGITEDGNRTYYADSVKGRFTISRDNSKNTLYLQMNSLRAEDTAVYYCAKIRNLHWDVGRQFDYWGQGTLVTVSS,> 7 µM
19,BMS2h-745-2 (other) VH: EVQLLESGGGLVQPGGSLRLSCAASGFTFDNTEMAWVRQAPGKGLEWVSGISEDGNRTYYADSVKGRFTISRDNSKNTLYLQMNSLRAEDSAVYYCAKIRNLHWDVGRQFVYWGQGTLVTVSS,> 7 µM
20,BMS2h-745-9 (other) VH: EVQLLESGGGSVQPGGSLRLSCAASGFTFDNTEMAWVRQAPGKGLEWVSGITEDGNRTYYADSVKGRFTISRDNSKNTLYLQMNSLRAEDTAVYYCAKIRNLHWDVGRQFVYWGQGTLVTVSS,> 7 µM
21,BMS2h-745-1 (other) VH: EVQLLESGGGLVQPGGSLRLSCAASGFTFDNTEMAWVRQAPGKGLEWVSGITEDGNRTYYADSVKGRFTISRDNSKNTLYLQMNSLRAEDTAVYYCAKIRNLHWDVGRQFDYWGQGTLVTVSS,> 7 µM
22,BMS2h-723 (other) VH: EVQLLESGGGLVQPGGSLRLSCAASGFTFDLYDMMWVRQAPGKGLEWVSSISDLGTLTYYADSVKGRFTISRDNSKNTLYLQMNSLRAEDTAVYYCAKNGFRVTSNDRRFDYWGQGTLVTVSS,> 7 µM

# Now from value to binder:
row,hIZCD40L-driven Human B Cell Proliferation EC50,Binder
1,> 7 µM,BMS2h-774 (other) VH: EVQLLESGGGLVQPGGSLRLSCAASGFTFREYDMGWVRQAPGKGLEWVSLISPPGRTTYYADSVKGRFTISRDNSKNTLYLQMNSLRAEDTAVYYCAKVVILGYTNRFDYWGQGTLVTVSS
2,> 7 µM,BMS2h-766 (other) VH: EVQLLESGGGLVQPGGSLRLSCAASGFTFGDYGMSWVRQAPGKGLEWVSYIDPLGRLTYYADSVKGRFTISRDNSKNTLYLQMNSLRAEDTAVYYCAEDLSSLQYGVSPNFDYWGQGTLVTVSS
3,> 7 µM,BMS2h-765 (other) VH: EVQLLESGGGLVQPGGSLRLSCAASGFTFSAYTMEWVRQAPGKGLEWVSSIGVTGYDTYYADSVKGRFTISRDNSKNTLYLQMNSLRAEDTAVYYCAKGGQGFDYWGQGTLVTVSS
4,6.4 µM,BMS2h-757 (other) VH: EVQLLESGGGLVQPGGSLRLSCAASGFTFKEYNMAWVRQAPGKGLEWVSSINFAGRTTYYADSVKGRFTISRDNSKNTLYLQMNSLRAEDTAVYYCAKLSLPLDIFSFDYWGQGTLVTVSS
5,5.9 µM,BMS2h-758 (other) VH: EVQLLESGGGLVQPGGSLRLSCAASGFTFGDYGMNWVRQAPGKGLEWVSHISSNGRFTYYADSVKGRFTISRDNSKNTLYLQMNSLRAEDTAVYYCAETSGYFDYWGQGTLVTVSS
6,> 7 µM,BMS2h-758-4 (other) VH: EVQLLESGGGLVQPGGSLRLSCAASGFTFGDYGMNWVRQAPGKGLEWVSHISSNGRFTYYADSVKGRFTISRDNSKNTLFLQMNSLRAEDTAVYYCAETSGYYEYWGHGTLVTVSS
7,> 7 µM,BMS2h-758-3 (other) VH: EVQLLESGGGLVQPGGSLRLSCAASGFTFGDYGMNWVRQAPGKGLEWVSHISSNGRFTYYADSVKGRFTISRDNSKNTLYLQMNSLRAEDTAVYYCAETSSYFEYWGQGTLVTVSS
8,> 7 µM,BMS2h-758-5 (other) VH: EVQLLESGGGLVQPGGSLRLSCAASGFAFGDYGMNWVRQAPGKGLEWVSHISSNGRFTYYADSVKGRFTISRDNSKNTLYLQMNSLRAEDTAVYYCAETSGYFEYWGQGTLVTVSS
9,> 7 µM,BMS2h-758-2 (other) VH: EVQLLESGGGLVQPGGSLRLSCAASGFTFGDYGMNWVRQAPGKGLEWVSHISSNGRFTYYADSVKGRFTISRDNSKNTLYLQMNSLRAEDTAVYYCAETSGYFEYWGQGTLVTVSS
10,> 7 µM,BMS2h-758-1 (other) VH: EVQLLESGGGLVQPGGSLRLSCAASGFTFGDYGMNWVRQAPGKGLEWVSHISSNGRFTYYADSVKGRFTISRDNSKNMLYLRMNSLRAEDTAVYYCAETSGYYEYWGQGTLVTVSS
